From IntAct's records for PubMed 18794898

B1: Indian hedgehog protein (Mus musculus), P97812 (parent)
chain: MSPAWLRPRLRFCLFLLLLLLVPAARGCGPGRVVGSRRRPPRKLVPLAYKQFSPNVPEKTLGASGRYEGKIARSSERFKELTPNYNPDIIFKDEENTGADRLMTQRCKDRLNSLAISVMNQWPGVKLRVTEGWDEDGHHSEESLHYEGRAVDITTSDRDRNKYGLLARLAVEAGFDWVYYESKAHVHCSVKSEHSAAAKTGGCFPAGAQVRLENGERVALSAVKPGDRVLAMGEDGTPTFSDVLIFLDREPNRLRAFQVIETQDPPRRLALTPAHLLFIADNHTEPAAHFRATFASHVQPGQYVLVSGVPGLQPARVAAVSTHVALGSYAPLTRHGTLVVEDVVASCFAAVADHHLAQLAFWPLRLFPSLAWGSWTPSEGVHWYPQMLYRLGRLLLEESTFHPLGMSGAGS
partner: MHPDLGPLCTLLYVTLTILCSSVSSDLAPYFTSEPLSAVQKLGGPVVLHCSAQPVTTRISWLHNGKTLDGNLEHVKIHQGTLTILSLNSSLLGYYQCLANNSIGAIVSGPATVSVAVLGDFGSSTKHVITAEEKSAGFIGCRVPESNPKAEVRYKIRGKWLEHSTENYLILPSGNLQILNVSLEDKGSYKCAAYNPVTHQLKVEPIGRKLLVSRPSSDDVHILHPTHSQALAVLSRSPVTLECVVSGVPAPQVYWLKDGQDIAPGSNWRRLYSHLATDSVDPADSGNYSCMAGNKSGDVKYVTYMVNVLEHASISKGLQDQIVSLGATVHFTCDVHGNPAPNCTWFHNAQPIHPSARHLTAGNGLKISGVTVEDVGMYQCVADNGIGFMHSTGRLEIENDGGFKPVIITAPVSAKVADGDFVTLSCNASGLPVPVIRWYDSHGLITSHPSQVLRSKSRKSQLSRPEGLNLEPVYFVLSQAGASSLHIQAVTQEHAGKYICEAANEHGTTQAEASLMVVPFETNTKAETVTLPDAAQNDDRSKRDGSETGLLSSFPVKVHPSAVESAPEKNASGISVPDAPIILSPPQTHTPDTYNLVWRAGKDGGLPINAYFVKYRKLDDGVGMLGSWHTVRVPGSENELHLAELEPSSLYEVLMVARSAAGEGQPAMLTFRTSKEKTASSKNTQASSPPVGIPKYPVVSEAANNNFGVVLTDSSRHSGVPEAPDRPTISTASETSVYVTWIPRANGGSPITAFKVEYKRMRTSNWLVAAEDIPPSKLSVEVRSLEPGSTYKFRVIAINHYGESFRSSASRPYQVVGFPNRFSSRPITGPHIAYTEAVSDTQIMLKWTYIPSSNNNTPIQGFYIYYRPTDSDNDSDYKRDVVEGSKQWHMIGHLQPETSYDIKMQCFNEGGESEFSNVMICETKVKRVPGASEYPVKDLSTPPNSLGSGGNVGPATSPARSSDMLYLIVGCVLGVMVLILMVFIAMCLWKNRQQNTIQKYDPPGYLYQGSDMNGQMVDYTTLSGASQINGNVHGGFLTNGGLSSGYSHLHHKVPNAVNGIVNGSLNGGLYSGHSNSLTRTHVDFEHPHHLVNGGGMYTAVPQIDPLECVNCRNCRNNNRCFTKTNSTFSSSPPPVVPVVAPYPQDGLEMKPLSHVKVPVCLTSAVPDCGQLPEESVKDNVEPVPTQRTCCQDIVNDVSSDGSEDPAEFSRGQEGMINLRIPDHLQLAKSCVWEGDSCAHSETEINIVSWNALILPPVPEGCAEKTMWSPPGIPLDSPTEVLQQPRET

Variants of: B1
Settings: with cdon_human CDON

Row | effect of a mutation on the interaction | Variant
1 | disrupting interaction | E131K
